# Source: the supplement of paper PMC6757056
# ± gives the standard deviation of the averaged measurements.
# B1: library; a variant is named by its letters at N, in order (parent)
# chain: GCUGUCACCGGAAUACCAGCAUCGUCUUGAUGCCCUUGGAAGUCCGGUCUGAUGAGUCCNNNNNGGACGAAACAGC
# Legend:
# theophylline [1] = variants of: B1; assay: FACS-Seq fitted mean relative fluorescence mCherry/BFP without ligand (log10 relative fluorescence); higher = higher reporter protein expression; settings: HEK293T, ligand present: no
# Protocol: (§1)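 Hammerhead (sTRSV) ribozyme switch libraries with a ligand aptamer grafted on stem I and a randomized N4-6 loop II, cloned into the 3' UTR of mCherry and transiently transfected into HEK293T cells; RNA-Seq 72 h post transfection with ligand added 1 h before transfection; RNA read count / plasmid DNA read count normalized to the non-cleaving sTRSVctl (x100), log10; sequences with >100 DNA reads. FACS-Seq: lentiviral library sorted into 6 bins after 48 h ligand, log-normal fit mean of mCherry/BFP scaled to controls. Printed sequences are partial switch sequences.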
# theophylline [2] = variants of: B1; assay: normalized RNA/DNA level with ligand (relative to sTRSVctl = 100) (log10 (% of sTRSVctl)); higher = less ribozyme self-cleavage, higher mRNA level; settings: ligand concentration (+) RNA-Seq: 5 mM, HEK293T, reporter: mCherry (pCS4076), ligand present: yes
# Protocol: as §1
# theophylline [3] = variants of: B1; assay: normalized RNA/DNA level without ligand (relative to sTRSVctl = 100) (log10 (% of sTRSVctl)); higher = less ribozyme self-cleavage, higher mRNA level; settings: HEK293T, reporter: mCherry (pCS4076), ligand present: no
# Protocol: as §1
# theophylline [4] = variants of: B1; assay: FACS-Seq fitted mean relative fluorescence mCherry/BFP with ligand (log10 relative fluorescence); ligand concentration (+) FACS-Seq: 1 mM; higher = higher reporter protein expression; settings: HEK293T, ligand present: yes
# Protocol: as §1
Variant,FACS-Seq fitted mean (log10) (theophylline [1]),normalized RNA/DNA level with ligand (log10) (theophylline [2]),normalized RNA/DNA level without ligand (log10) (theophylline [3]),FACS-Seq fitted mean (log10) (theophylline [4])
CCCGU,0.812 ± 0.08,1.91 ± 0.23,1.894 ± 0.014,0.82 ± 0.087
UGCGU,0.83 ± 0.044,1.97 ± 0.088,1.923 ± 0.018,0.761 ± 0.07
ACCGG,0.955 ± 0.0037,1.95 ± 0.021,1.94 ± 0.076,1.05 ± 0.12
ACCGC,1.12 ± 0.047,2.06 ± 0.056,1.99 ± 0.03,1.1 ± 0.027
ACCGA,0.6309 ± 0.0029,2.006 ± 0.015,1.77 ± 0.059,0.7685 ± 0.0034
CAAAU,0.264 ± 0.0079,1.946 ± 0.0043,1.6 ± 0.19,0.399 ± 0.048
CAAAA,0.173 ± 0.019,1.95 ± 0.029,1.31 ± 0.062,0.67 ± 0.071
CUAGA,0.973 ± 0.064,1.96 ± 0.084,1.83 ± 0.04,0.9812 ± 0.0091
AGAAC,0.387 ± 0.005,1.9164 ± 0.00023,1.78 ± 0.12,0.507 ± 0.016
AGUUC,0.981 ± 0.011,2 ± 0.034,1.89 ± 0.049,1.02 ± 0.049
UUCGU,0.93 ± 0.0046,2.08 ± 0.14,2.02 ± 0.059,0.939 ± 0.067
ACCAA,0.759 ± 0.043,2.02 ± 0.082,1.74 ± 0.069,0.832 ± 0.016
GCAAG,0.716 ± 0.087,1.97 ± 0.14,1.66 ± 0.062,0.9 ± 0.035
AUGCC,0.828 ± 0.054,2 ± 0.033,1.96 ± 0.071,0.852 ± 0.022
AUGCA,0.792 ± 0.023,2.023 ± 0.014,1.841 ± 0.0049,0.96 ± 0.14
UGGGA,-0.00768 ± 0.057,2.02 ± 0.07,1.6195 ± 0.0012,0.178 ± 0.054
UCCAU,1.01 ± 0.016,2.012 ± 0.019,1.96 ± 0.054,1.05 ± 0.11
AAUAA,-0.00162 ± 0.092,1.88 ± 0.051,1.33 ± 0.021,0.509 ± 0.039
ACAGA,0.413 ± 0.11,1.96 ± 0.064,1.54 ± 0.035,0.638 ± 0.062
CGCCC,0.615 ± 0.021,2.01 ± 0.14,2.02 ± 0.04,0.725 ± 0.098
CCGUC,0.556 ± 0.018,2.11 ± 0.037,1.93 ± 0.073,0.413 ± 0.034
UACAG,1.02 ± 0.041,1.96 ± 0.051,1.908 ± 0.018,0.918 ± 0.052
UAACU,0.803 ± 0.036,2 ± 0.14,1.89 ± 0.02,0.716 ± 0.1
UAACG,0.784 ± 0.07,1.99 ± 0.04,1.87 ± 0.18,0.711 ± 0.018

Variant,FACS-Seq fitted mean (log10) (theophylline [1]),normalized RNA/DNA level with ligand (log10) (theophylline [2]),normalized RNA/DNA level without ligand (log10) (theophylline [3]),FACS-Seq fitted mean (log10) (theophylline [4])
AACGC,0.98544 ± 0.00052,2.135 ± 0.0047,1.94 ± 0.072,0.922 ± 0.023
AACGU,0.773 ± 0.075,1.965 ± 0.017,1.793 ± 0.011,0.854 ± 0.2
AUUCC,0.959 ± 0.011,1.99 ± 0.1,1.95 ± 0.072,0.909 ± 0.08
AGUGC,0.289 ± 0.03,2.01 ± 0.0061,1.87 ± 0.071,0.297 ± 0.058
AUGGU,0.596 ± 0.13,2.02 ± 0.032,1.78 ± 0.044,0.728 ± 0.049
AUGGC,0.932 ± 0.11,2.008 ± 0.0029,1.88 ± 0.085,0.903 ± 0.041
GAUCG,1.12 ± 0.081,1.9 ± 0.031,1.78 ± 0.05,1.17 ± 0.094
AACCU,0.83 ± 0.037,2.06 ± 0.1,1.949 ± 0.017,0.698 ± 0.016
CCACA,0.241 ± 0.0081,1.97 ± 0.022,1.75 ± 0.096,0.47 ± 0.086
AUGAA,0.317 ± 0.045,1.94 ± 0.04,1.52 ± 0.074,0.5036 ± 0.0038
AUGAC,0.5991 ± 0.0031,1.914 ± 0.016,1.87 ± 0.16,0.786 ± 0.021
CCUAA,0.523 ± 0.071,1.98 ± 0.04,1.71 ± 0.13,0.725 ± 0.073
CACCU,0.774 ± 0.091,2.06 ± 0.075,1.78 ± 0.097,0.9241 ± 4.2e-05
CACCC,0.8 ± 0.07,1.92 ± 0.06,1.93 ± 0.024,0.762 ± 0.018
ACUCG,1.06 ± 0.14,1.95 ± 0.2,1.89 ± 0.11,1.17 ± 0.035
CAGAU,0.809 ± 0.1,2 ± 0.035,1.6 ± 0.25,1.05 ± 0.037
AUAUG,0.794 ± 0.14,1.99 ± 0.045,1.8 ± 0.087,0.981 ± 0.043
AUAUA,-0.278 ± 0.26,2.006 ± 0.015,1.75 ± 0.028,0.0109 ± 0.01
CAGCU,0.425 ± 0.0073,2.017 ± 0.019,1.75 ± 0.059,0.527 ± 0.0083
UAAAU,0.912 ± 0.013,1.978 ± 0.0035,1.84 ± 0.13,0.9829 ± 0.0075
UAAAA,0.164 ± 0.019,1.99 ± 0.029,1.206 ± 0.0047,0.589 ± 0.038
UAAAC,0.86 ± 0.034,1.978 ± 0.013,1.91 ± 0.096,0.924 ± 0.042
UGGUA,0.0996 ± 0.099,1.946 ± 0.011,1.28 ± 0.11,0.69 ± 0.042
UGGUG,0.674 ± 0.065,2.04 ± 0.041,1.87 ± 0.1,0.661 ± 0.083

Variant,FACS-Seq fitted mean (log10) (theophylline [1]),normalized RNA/DNA level with ligand (log10) (theophylline [2]),normalized RNA/DNA level without ligand (log10) (theophylline [3]),FACS-Seq fitted mean (log10) (theophylline [4])
GACAA,0.619 ± 0.048,1.938 ± 0.019,1.56 ± 0.022,0.731 ± 0.017
AAGCA,0.538 ± 0.016,2.03 ± 0.051,1.8 ± 0.033,0.682 ± 0.023
AAGAU,0.919 ± 0.085,1.97 ± 0.06,1.69 ± 0.052,1.06 ± 0.11
ACGCU,0.995 ± 0.016,2.08 ± 0.17,1.914 ± 0.019,1.01 ± 0.031
UCUGA,0.9 ± 0.11,2.04 ± 0.035,1.89 ± 0.056,0.983 ± 0.1
UCUGC,0.365 ± 0.16,1.98 ± 0.096,2.02 ± 0.032,0.642 ± 0.034
AGCCG,0.757 ± 0.026,1.99 ± 0.14,1.93 ± 0.11,0.782 ± 0.054
AGAGC,0.629 ± 0.05,1.89 ± 0.12,1.81 ± 0.027,0.813 ± 0.051
AGAGG,0.93 ± 0.038,1.956 ± 0.018,1.8 ± 0.11,0.966 ± 0.08
GCAGA,0.899 ± 0.2,2.04 ± 0.03,1.66 ± 0.083,0.875 ± 0.14
UUUAC,0.968 ± 0.059,2.06 ± 0.073,1.98 ± 0.066,0.808 ± 0.084
AAGUG,0.678 ± 0.085,1.96 ± 0.04,1.79 ± 0.074,0.763 ± 0.076
AAGUC,0.771 ± 0.032,1.96 ± 0.045,1.91 ± 0.1,0.866 ± 0.079
AAGUA,0.448 ± 0.1,2 ± 0.064,1.63 ± 0.12,0.35 ± 0.062
UUUGA,0.62 ± 0.055,2.09 ± 0.097,1.94 ± 0.021,0.856 ± 0.079
CUCAU,1.03 ± 0.12,1.973 ± 0.0058,1.85 ± 0.06,1.07 ± 0.03
AAACA,-0.0142 ± 0.16,1.9113 ± 0.00046,1.72 ± 0.14,0.172 ± 0.072
AAUCA,0.1911 ± 0.00077,1.9026 ± 0.0018,1.7 ± 0.029,0.221 ± 0.08
AAUCG,0.941 ± 0.16,2.06 ± 0.06,1.87 ± 0.1,0.953 ± 0.04
AUUUG,0.103 ± 0.037,2.03 ± 0.083,1.93 ± 0.17,0.184 ± 0.037
UAAGU,0.651 ± 0.24,2.03 ± 0.044,1.86 ± 0.088,0.751 ± 0.013
ACUAG,1.14 ± 0.18,2 ± 0.067,2.01 ± 0.043,1.08 ± 0.11
ACUGC,0.883 ± 0.038,2.01 ± 0.031,1.95 ± 0.058,0.793 ± 0.067
ACUGU,0.698 ± 0.1,2.027 ± 0.011,1.89 ± 0.087,0.626 ± 0.07
